Laboratory results reported in a protein production outcome set (Wang et al. 2014).

Assay: label from the status in PepcDB records

Sequence	protein production
MTIKEFIKKSRLKTWDVIIIAILVLGSFLPLVVFAMQNRGQEAATYQAVLKVDNKVIKVFDLKKDGPHYTYKYEAKDGDYNLIEVDGDRIRVKEANCADLVDVRRGWISKPGETPIACLPHNLFITVEASDGSEDGSLIY	failed
MTIKGRAFPEGFLWGGAVAAHQLEGGYKEGGKGLSTADIMTLGTNERPREITDGVVAGKYYPNHQAIDFYHRYPEDIELFAEMGFKCFRTSIAWTRIFPNGDESEPNEAGLQFYDDLFDECLKNGIQPVVTLAHFEMPYHLVKQYGGWRNRKLIQFYLNFAKVCFERYRDKVTYWMTFNEINNQTNFESDGAMLTDSGIIHQPGENRERWMYQAAHYELVASAAAVQLGHQINPDFQIGCMIAMCPIYPLTAAPADVLFAQRAMQTRFYFADVHCNGTYPQWLRNRFESEHFNLDITAEDLKILQAGTVDYIGFSYYMSFTVKDTGKLAYNEEHDLVKNPYVKASDWGWQVDPVGLRYAMNWFTDRYHLPLFIVENGLGAIDKKTADNQIHDDYRIDYLTDHLRQIKLAVLEDGVDLIGYTPWGCIDLVAASTGQMSKRYGFIYVDENDDGSGSLKRYKKDSFTWFQHVIATNGAEIE	not failed
MTIKRIFCDMDGTLLNSEGQVSKSNATLIREAAIPVTLVSARAPMEMKDAVDALQLGGVQVAFNGGLIYRIGDNNQVLPIHTQIIKKSTVKQLLRGIRFHFPQVSLSYYDLNNWYCDKIDEGIRYEHSLTQQCPTFIHNEDQFLEGHTNTFKIMMITFDEANMLELEKYLQSLELPEITIQRSGKAYLEITHLLAKKSKGIAYILQKEQLAREETAAFGDGHNDLPMLEMVGYPIVMDNAFDDIKAIAYQLTKSNDEDGVGYGIQKFLK	failed
MTIKSDKWIRRMAQEHGMIEPFVERQVRGADDSRVISYGVSSYGYDVRCAAEFKVFTNIHSAVVDPKNFDEKSFVDINSDVCIIPPNSFALARTVEYFRIPRDVLTICLGKSTYARCGIIVNVTPLEPEWEGHVTLEFSNTTNLPAKIYANEGVAQMLFLQSDEACEVSYKDRGGKYQGQR	not failed
MTINPRDYDLDELRKMARQRGNGMGDEDVPDPTDLDMGLDDADEEVLAGSSFRSGLYRELLPFLSGDAQEKPYLEALPETYAAEFVVFEWLEFLLMHSGYKGADEALDYYRSIDWLTEDVQDDLSDYLLGIDESATNDDNELSVDDHMLSLVYIAKLTAMT	failed
MTIQQWLFSFKGRIGRRDFWIWIGLWFAGMLVLFSLAGKNLLDIQTAAFCLVCLLWPTAAVTVKRLHDRGRSGAWAFLMIVAWMLLAGNWAILPGVWQWAVGRFVPTLILVMMLIDLGAFVGTQGENKYGKDTQDVKYKADNKSSN	failed
MTIRRLTPTPRAVDWGLFGAVATLLATGVATIFAGIPSSAWIIDLHALSGVVLTLLLPVKLRRVFHRVAPSRLTGTRVLSVGLAAVTLGALGTGVWWIFGGTLDLGPWGLFHLHVALGLLVPPLLLVHLRARFYSPAQATCGGRRDVLRYAGLVTAGALLWRVQGPVNDALDTAGADRRYTGSREEGTDDGNRFPVTSWVADDPDPVDAADWSLSVAGRVAHEASYVAGDLSPDATESAVLDCTSGWYSGHEWQGVRVGDLLDAADPDDAAAWVQFRSITGYRWSLPLSEARDAVLATHVDGERLAHGHGYPLRLVAPGRRGFQWVKWVESVRVSKRRELGEWLAIFVSGL	failed
MTISADPDRDWKNRISAQALRQIQELDLALDPNSFELWYTFFSGRHKALTEAVNALLAATGRPSAGDISGLYEQFLYPTKAVTRIHAIGALVHSQSNALIDVIEEASDATHGYETRLSSAAPRLALGRMEDGLQTIVDELLTWTMDIQTANAVLVDRLRSAADQVRKLQDQLDQVRLESMTDPLTEVGNRKYFENQLSLHVASDDSGPLALLIVDLDNFKQFNDRHGHVVGDDVLRLAASTIKHNCRRDDVVCRYGGDEFAIILPRTPLREALLLGEAIRAAIAARELHRRSTHESLGRLLISIGAAEFRPGETADDFVERADHWMYAAKQARRDRTRPGPDAAARDPGERRPDILWHETYACGEPTIDAQHRELFDLANVILGPEIEMLEPARLSELVELLLTRVAEHFQYEQAVLEASGYDECGLHRMEHDHLLIRARQVSEAVVSGHQSLGELRAFLVNSVILGHMLKDDRRFFPLFDRQASSATQSGAAPVHRERRRLSL	failed
MTISNFVNYIRSPPVNGFVCCTRGSSIAVCNPTTRQIVKLPDVVTNENYMHVRLGYDPVEDQYKVLLVVMMFDGYRTDTDQEYFVFTLSSQQKEWRKIENTTGETYHMVYGGICIDGAIYYGVSQSIIVKFDVRSEKMEFIQAHEVSHIAPPYYSTLLYLSSDMIRMENHSNEEVRFWILEDAEKLRVSHMACDVWDDSLGKYVRAKEEIHTGKLMGIYPRLQSSKYKPFSVCVYHFNKVGLKKTEIQGSNDDDIRFRCGIGMRTHEILILEVTLRILGSCEEFSWFH	not failed
MTISWFQAALLGLFACLSSMPGLGGTTIGNYTLGRPLVGGLVCGLILGDIKTGIVCGVAMQLVYIALVTPGGTVSADVRAVSYIGIPLAMVAIHSQGLSATSSDAANLAKSMGTLVGTIGTVLFYGTATMNLVWQHIGWQAVEKREFKRLYVVDWGLPWISHIVFSFIPTLIMCKLGADAVTALKNALPMDGIPMKTLFTVGSLLPCVGIAILLKQIVEKAVDFIPFFVGFTLAASLGLNLVSCAVISLIFAVLFYELETIKNMRATASAEASDFDDDDEEDI	failed
MTKAIPWKINWQTMAFEYIGPQIEALLGWPQGSWKSVEDWATRMHPEDQEWVVNFCVKQSECGVDHEADYRALHRDGHYVWIRDVVHVVRDDSGEVEALIGFMFDISLEHHHHHH	not failed
MTKAREFLGTGWKFPVAAGADGAMVLSSAEEDIAESIRIILGTARGERVMRPDFGCGIHDRVFSVINTTTLGLIENEVKEALILWEPRIELLSVTASPREAAEGRLLIDIEYRVRSTNTRFNLVYPFYLKESA	not failed
MTKFKGIIYASLGAAFFGISSIIAGLLFNRCSIEPGWLVTTRMLFSGLLLLAWLAITKHNIFSVWSSVKSSLRIVAFGIFGVLFAQSSFLLSVYYGNAAIATILQSLGPSIIIIILAIKSKAIPRRLDIIAIFLSLIGVFLLVTNGNIGELSFSASALVWGLLSALGVCAYTLIPCPLIKEHPPLSLVAWALLIGGVISNFLHPVTNLPKNFDQTDLLLVSLIVVVGTLLAYSLYINSLKYTEPHIVGMLGMLEPVTAILISTLFLGVSFLGFQQLGIFVVFLSLFLINFPAKKK	failed
MTKFSIIIPTRERVGTLLYTLPACLRVERDDIEFVVCDNYSQDGTADYLKSIQDHRVRIYRTNQRLSMKDNFEHGLARAQGEYICFMGDDDLIIPSLFPLVEKELENVETVCWNRWVYYWPDSYESPNMLIVNNNNFSVILSSSRALDFALRYFLNYQNLPSLYNSFTHRKIVQRVINYNCLNLETEKFYPQDAISPDVFSALQILKFTNSFAHIGLPLTVSGISSSSNGAGVRNNSEESKKFIQELKVEKLSDLLHVSLSALLTQKISYYITNLSDYISFIINYIPETLQEDIFLDLIASGCRTLFDIGDIDADTATQFMAGYDISPWVVNGRLNLMDQGFYTLFRVPMFNRVVINGDEHSLSNSLNASVFLDDYFSSLIY	failed
MTKGSRKSRRRQQAPTKARPEQGRSAPAQRPAPTFRLRTAALLAIGSGALFFLLASGLSWFKTSEISSPPTREAELSFVGSQACSGCHQAETRLWQSSQHRHAMDHATDTSVRGDFNDAAFEYAGTRSRFFRKDRKFLIETDGPDGKLATFEVKYAFGVDPLQQYLIEFPDGRIQALSIAWDTRPKDQGGQRWFHLYPDAAVTSSDPLHWTRLNQNWNFMCAECHSTNVHKNYDAARDRFATSFSEISVGCEACHGAGSRHVSWAQQKPAARGPDNGLLVRFDERSGITWSADAETMTPKRSAPPATLRKEVEVCGRCHARRGQFSEDWRPGKSLSETHRVSLLDRQSFHADGQMRDDEETYNYASFKQSKMFAKGVTCSDCHDPHSAALKAPGDGVCAQCHAPAKYEAAAHRQHANVSPPPGCASCHMPERRYMVVDRRHDHGFRIPRPDLSVQLGTPNACNDCHRDKPAAWAARQVETWFGPQRLGFQAYARAFHAAWSEAADAQALLSAVVANDAPGIVRAGALAELPAPDADLIRRALSDPDPLVRLGALDALEGIPADQLWTLASAQLTDPVRGVRIRAAELLASVPPSRQPAADRNKFTQAAAEFVAAQKLNADRPDARAALGNFLARQAGAAEAEAEYRAALRLDPSFPPAAINLSDLYRQLGRDSDGERILRETLTKSGQNASLHHALGLVLVREKRADEALGELRQAAELDPGQPRYAYVYAVGLHSSGRRDDALAVLRTSLQVHPNDRESVSAALALSREKGDSASALGYAEQLSRLMPGNREIEDLIKQLKQ	failed
